Test results published in patent US20100093618A1 (published 2010).
Positions count from the first letter of the chain named.

T1: FLAG-p100 (in vitro translated) (human, UniProt Q00653 1-900)
T1 sequence: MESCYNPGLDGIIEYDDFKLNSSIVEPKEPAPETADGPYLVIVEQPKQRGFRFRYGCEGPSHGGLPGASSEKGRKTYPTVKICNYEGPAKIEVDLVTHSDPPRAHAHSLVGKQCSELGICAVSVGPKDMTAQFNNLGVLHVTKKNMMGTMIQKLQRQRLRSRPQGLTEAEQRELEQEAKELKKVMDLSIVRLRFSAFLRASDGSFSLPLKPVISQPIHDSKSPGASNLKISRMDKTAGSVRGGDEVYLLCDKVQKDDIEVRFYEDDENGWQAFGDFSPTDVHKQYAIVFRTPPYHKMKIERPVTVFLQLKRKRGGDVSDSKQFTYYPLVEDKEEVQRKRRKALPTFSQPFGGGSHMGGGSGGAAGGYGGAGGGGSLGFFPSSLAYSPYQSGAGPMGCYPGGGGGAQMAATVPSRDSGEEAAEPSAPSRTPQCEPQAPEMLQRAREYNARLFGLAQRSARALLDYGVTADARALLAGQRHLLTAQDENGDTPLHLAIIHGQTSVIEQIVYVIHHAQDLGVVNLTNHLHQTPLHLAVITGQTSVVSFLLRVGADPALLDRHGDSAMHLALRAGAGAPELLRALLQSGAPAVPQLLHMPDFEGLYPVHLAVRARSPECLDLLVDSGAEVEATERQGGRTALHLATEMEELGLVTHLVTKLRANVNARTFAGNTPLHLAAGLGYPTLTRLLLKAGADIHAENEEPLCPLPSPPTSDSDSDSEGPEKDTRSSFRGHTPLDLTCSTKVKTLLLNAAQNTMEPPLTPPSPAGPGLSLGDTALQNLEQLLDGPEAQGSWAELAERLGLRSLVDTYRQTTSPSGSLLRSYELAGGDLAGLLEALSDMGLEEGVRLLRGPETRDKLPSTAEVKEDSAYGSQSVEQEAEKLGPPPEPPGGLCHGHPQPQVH

T2: p105 (in vitro translated) (human, UniProt P19838 1-968)
T2 sequence: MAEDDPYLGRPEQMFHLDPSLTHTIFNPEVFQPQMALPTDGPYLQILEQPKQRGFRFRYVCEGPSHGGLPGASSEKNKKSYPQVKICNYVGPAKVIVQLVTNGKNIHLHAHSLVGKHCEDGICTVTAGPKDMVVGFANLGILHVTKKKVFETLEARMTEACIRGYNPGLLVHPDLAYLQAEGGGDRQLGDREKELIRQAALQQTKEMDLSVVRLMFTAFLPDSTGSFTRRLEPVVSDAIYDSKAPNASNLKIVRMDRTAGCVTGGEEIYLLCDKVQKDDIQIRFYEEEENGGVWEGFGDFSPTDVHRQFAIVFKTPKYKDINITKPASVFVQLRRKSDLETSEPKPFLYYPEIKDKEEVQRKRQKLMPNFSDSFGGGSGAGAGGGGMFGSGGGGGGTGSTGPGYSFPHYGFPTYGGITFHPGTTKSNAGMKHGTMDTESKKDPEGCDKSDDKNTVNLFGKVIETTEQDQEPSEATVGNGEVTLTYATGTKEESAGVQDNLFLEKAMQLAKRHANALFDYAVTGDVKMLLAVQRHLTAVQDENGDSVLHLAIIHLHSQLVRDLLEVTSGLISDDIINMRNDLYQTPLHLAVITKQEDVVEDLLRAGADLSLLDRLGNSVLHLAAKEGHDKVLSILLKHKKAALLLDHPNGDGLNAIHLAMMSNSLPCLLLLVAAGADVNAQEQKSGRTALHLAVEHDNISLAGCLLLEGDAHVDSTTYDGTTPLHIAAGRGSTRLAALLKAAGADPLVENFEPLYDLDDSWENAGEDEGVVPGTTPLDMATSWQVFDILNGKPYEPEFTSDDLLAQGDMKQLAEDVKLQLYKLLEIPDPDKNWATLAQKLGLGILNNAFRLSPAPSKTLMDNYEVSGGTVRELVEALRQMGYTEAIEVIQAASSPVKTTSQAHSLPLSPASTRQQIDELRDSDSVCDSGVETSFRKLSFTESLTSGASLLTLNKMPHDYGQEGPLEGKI

T3: [35S]methionine-labeled IκB-α 1-263 (in vitro translated) (UniProt P25963 1-263, [35S]methionine label)
T3 construct: Translated in vitro from pcDNA3
T3 sequence (looked up): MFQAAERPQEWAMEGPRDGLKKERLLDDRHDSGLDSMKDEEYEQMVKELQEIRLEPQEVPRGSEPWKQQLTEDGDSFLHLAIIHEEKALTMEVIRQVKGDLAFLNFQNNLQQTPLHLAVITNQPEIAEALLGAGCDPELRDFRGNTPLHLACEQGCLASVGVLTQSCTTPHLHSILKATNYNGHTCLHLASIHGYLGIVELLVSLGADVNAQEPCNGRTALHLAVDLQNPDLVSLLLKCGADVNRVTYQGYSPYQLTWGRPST

T4: GST-IκB-α (UniProt P25963 1-317)
T4 construct: also called pGEX-2T-IκB-α product; not shown: glutathione S-transferase (GST) encoded by pGEX-2T
T4 sequence: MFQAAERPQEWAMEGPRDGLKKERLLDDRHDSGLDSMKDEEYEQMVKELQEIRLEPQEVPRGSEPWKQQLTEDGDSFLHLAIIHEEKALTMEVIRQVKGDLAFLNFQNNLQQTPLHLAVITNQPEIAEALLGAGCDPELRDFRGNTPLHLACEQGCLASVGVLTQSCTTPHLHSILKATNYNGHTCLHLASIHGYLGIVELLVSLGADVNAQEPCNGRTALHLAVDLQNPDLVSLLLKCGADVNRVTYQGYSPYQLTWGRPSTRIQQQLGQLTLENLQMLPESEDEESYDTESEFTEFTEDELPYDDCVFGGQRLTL

B1: [35S]methionine-labeled IκB-α 72-287 (in vitro translated) (other)
chain: EDGDSFLHLAIIHEEKALTMEVIRQVKGDLAFLNFQNNLQQTPLHLAVITNQPEIAEALLGAGCDPELRDFRGNTPLHLACEQGCLASVGVLTQSCTTPHLHSILKATNYNGHTCLHLASIHGYLGIVELLVSLGADVNAQEPCNGRTALHLAVDLQNPDLVSLLLKCGADVNRVTYQGYSPYQLTWGRPSTRIQQQLGQLTLENLQMLPESEDEE
modifications: [35S]methionine label
B2: [35S]methionine-labeled IκB-α 72-287 L(272,274,277)A (in vitro translated) (other, UniProt P25963 72-287, looked up)
chain: B1 chain with L201A, L203A, L206A
modifications: [35S]methionine label
notes: range 72-287
B3: [35S]methionine-labeled IκB-α 120-317 (in vitro translated) (other, UniProt P25963 120-317, looked up)
chain: ITNQPEIAEALLGAGCDPELRDFRGNTPLHLACEQGCLASVGVLTQSCTTPHLHSILKATNYNGHTCLHLASIHGYLGIVELLVSLGADVNAQEPCNGRTALHLAVDLQNPDLVSLLLKCGADVNRVTYQGYSPYQLTWGRPSTRIQQQLGQLTLENLQMLPESEDEESYDTESEFTEFTEDELPYDDCVFGGQRLTL
modifications: [35S]methionine label
notes: Translated in vitro from pcDNA3
B4: [35S]methionine-labeled IκB-α 243-317 (in vitro translated) (other, UniProt P25963 243-317, looked up)
chain: VNRVTYQGYSPYQLTWGRPSTRIQQQLGQLTLENLQMLPESEDEESYDTESEFTEFTEDELPYDDCVFGGQRLTL
modifications: [35S]methionine label
notes: as for B3
B5: GST-Tat (other)
chain: MEPVDPRLEPWKHPGSQPKTACTNCYCKKCCFHCQVCFITKALGISYGRKKRRQRRRAHQNSQTHQASLSKQPTSQPRGDPTGPKE
notes: also called GST-Tat fusion protein from pGEX-2T-Tat; not shown: glutathione S-transferase (GST) encoded by pGEX-2T
B6: FLAG-Tat (p3XFLAG-CMV-Tat, wild type) (other)
chain: B5 chain
notes: Expressed in transfected HeLa cells (or MEFs); also called wild type Tat
B7: FLAG-Tat C(22,25,27)A (p3XFLAG-CMV-Tat C(22,25,27)A) (other)
chain: B5 chain with C22A, C25A, C27A
notes: Expressed in transfected HeLa cells
B8: FLAG-Tat R(49-57)A (p3XFLAG-CMV-Tat R(49-57)A) (other)
chain: B5 chain with R49A, R52A, R53A, R55A, R56A, R57A

Experiments:
GST [1] = target: T5, GST (UniProt P08515 1-218 = GST); experiment: GST pulldown of [35S]-labeled in vitro translated protein, autoradiography
T5 construct: Negative control in the pulldowns; also called GST protein; GST alone
T5 sequence (P08515 whole entry): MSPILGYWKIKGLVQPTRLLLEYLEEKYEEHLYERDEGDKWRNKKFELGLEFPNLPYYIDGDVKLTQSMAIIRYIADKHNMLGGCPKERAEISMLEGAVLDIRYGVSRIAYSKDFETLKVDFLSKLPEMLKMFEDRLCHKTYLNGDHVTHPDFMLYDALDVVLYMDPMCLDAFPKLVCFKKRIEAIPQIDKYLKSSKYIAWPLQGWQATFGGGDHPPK
Procedure: (§1) The pcDNA3 plasmids expressing the IκB genes under the T7 promoter were used as templates to translate in vitro the [³⁵S]methionine-labeled IκB proteins by using the TNT Quick Coupled transcription/translation systems (Promega). Aliquots (10 μl) of translation mixture were incubated with GST-Tat or GST proteins (10 μg) in 500 μl of binding buffer supplemented with 1 μg/μl of bovine serum albumin on a rocking platform for 3 h at room temperature.

[2] = target: T1, FLAG-p100 (in vitro translated); experiment: GST-Tat pulldown of in vitro translated protein, anti-FLAG Western blot
Procedure: (§2) The proteins were resolved on 10% SDS-PAGE, transferred to polyvinylidene difluoride membranes, and analyzed by immunoblotting with the indicated antibodies. The pcDNA3 plasmids expressing the IκB genes under the T7 promoter were used as templates to translate in vitro the [³⁵S]methionine-labeled IκB proteins by using the TNT Quick Coupled transcription/translation systems (Promega). Aliquots (10 μl) of translation mixture were incubated with GST-Tat or GST proteins (10 μg) in 500 μl of binding buffer supplemented with 1 μg/μl of bovine serum albumin on a rocking platform for 3 h at room temperature.

[3] = target: T2, p105 (in vitro translated); experiment: GST-Tat pulldown of in vitro translated protein, anti-p105 Western blot
Procedure: as §2

[4] = target: T3, [35S]methionine-labeled IκB-α 1-263 (in …); experiment: GST-Tat pulldown of [35S]-labeled in vitro translated protein, autoradiography
Procedure: as §1

GST [5] = target: T5, GST; experiment: GST pulldown from extracts of transfected HeLa cells, anti-FLAG Western blot
GST-IκB-α = target: T4, GST-IκB-α; experiment: GST-IκB-α pulldown from extracts of transfected HeLa cells, anti-FLAG Western blot

| Binder | binding result (GST [1]) | binding result (GST [5]) | also measured |
| --- | --- | --- | --- |
| B1 | no binding |  |  |
| B2 | no binding |  |  |
| B3 | no binding |  |  |
| B4 | no binding |  |  |
| B5 |  |  | binding result [2]: no binding; binding result [3]: no binding; binding result [4]: no binding |
| B6 |  | no binding |  |
| B7 |  | no binding |  |
| B8 |  | no binding | binding result (GST-IκB-α): no binding |
